Data: article PMC11329700, “Dynamin 1xA interacts with Endophilin A1 via its spliced long C-terminus for ultrafast endocytosis” (The EMBO Journal, 2024)
Where a chain is given by its changes, count along the chain named.

T1: Dyn1xA-PRR 746-864 (GST tag removed) (rat, UniProt P21575 746-864)
T1 construct: For SEC-MALS the removal is surmised from the predicted 19.4 kDa of the 1:1 complex; source: E. coli, 15N- or 15N,13C-labelled for NMR, GST cleaved, purified by gel filtration
T1 sequence (looked up): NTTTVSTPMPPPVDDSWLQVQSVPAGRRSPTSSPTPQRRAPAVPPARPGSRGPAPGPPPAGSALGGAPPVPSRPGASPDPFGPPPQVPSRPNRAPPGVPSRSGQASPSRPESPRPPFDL

T2: GST-Dyn1xA-PRR (dynamin 1xA proline-rich region, amino acids 746-864) (rat, UniProt P21575 746-864)
T2 construct: also called full-length Dyn1xA-PRR; source: E. coli JM109; GST fusion on GSH-sepharose beads (pull-down), GST-tagged in solution (ELISA)
T2 sequence (looked up): T1 sequence (looked up)

T3: GST-dyn1xA-PRR R838A (rat, UniProt P21575 746-864, R838A)
T3 construct: also called R838A (Dyn1xA-PRR); source: E. coli JM109; GST fusion on GSH-sepharose beads
T3 sequence (looked up): T1 sequence (looked up) with R93A

B1: Endophilin A1 SH3 domain (GST tag removed) (domain or fragment)
chain: not shown
notes: Endophilin A1, mouse, SH3 domain, amino acids 292-352 (methods); the results print residues D291-H352; Cleavage is stated for the NMR experiments; for SEC-MALS it is surmised from the predicted 19.4 kDa of the 1:1 complex; also called endophilin SH3; Endophilin A SH3; source: E. coli JM109, GST fusion, GST cleaved, purified by gel filtration
B2: His-tagged mouse Endophilin A1 SH3 domain (domain or fragment)
chain: not shown
notes: Endophilin A1, mouse, SH3 domain; The methods describe only a GST-Endophilin A1-SH3 construct (mouse, amino acids 292-352); the His-tagged construct of the ELISA is not described; also called His-tagged mouse Endophilin-SH3 domain
B3: Amphiphysin 1 (natural protein, UniProt O08838 1-683, looked up)
chain: MADIKTGIFAKNVQKRLNRAQEKVLQKLGKADETKDEQFEEYVQNFKRQEAEGTRLQRELRGYLAAIKGMQEASMKLTESLHEVYEPDWYGREDVKMVGEKCDVLWEDFHQKLVDGSLLTLDTYLGQFPDIKNRIAKRSRKLVDYDSARHHLEALQSSKRKDESRISKAEEEFQKAQKVFEEFNVDLQEELPSLWSRRVGFYVNTFKNVSSLEAKFHKEIAVLCHKLYEVMTKLGDQHADKAFSIQGAPSDSGPLRIAKTPSPPEEASPLPSPTASPNHTLAPASPAPVRPRSPSQTRKGPPVPPLPKVTPTKELQQENIINFFEDNFVPEINVTTPSQNEVLEVKKEETLLDLDFDPFKPDVTPAGSAAATHSPMSQTLPWDLWTTSTDLVQPASGGSFNDFTQPQDTSLFTMQTDQNMAETEQALPTEPQAEEPPTTAAAPTAGLDLGLEMEEPKEEAAIPPGTDAGETVGTEGSTGEEAEAEKAALPAGEGESPEGAKIDVESTELASSESPQAAELEAGAPQEKVIPSVVIEPASNHEGEEHQETTTGTETREATEDVAPQGPAGEKQELATEPTPLDSQAATPAPAGAVDASLSAGDAAQELPPGFLYKVETLHDFEAANSDELTLQRGDVVLVVPSDSEADQDAGWLVGVKESDWLQYRDLATYKGLFPENFTRHLE
notes: Amphiphysin 1, rat, endogenous in synaptosomes, detected by Western blot; also called Amphiphysin I; source: endogenous, rat brain synaptosomal lysate
B4: GST-Dyn1xA-PRR 806-864 (domain or fragment, rat, UniProt P21575 806-864, looked up)
chain: GSALGGAPPVPSRPGASPDPFGPPPQVPSRPNRAPPGVPSRSGQASPSRPESPRPPFDL
notes: source: E. coli JM109; GST fusion on GSH-sepharose beads (pull-down), GST-tagged in solution (ELISA)
B5: Endophilin A1 (natural protein, UniProt O35179 1-352, looked up)
chain: MSVAGLKKQFHKATQKVSEKVGGAEGTKLDDDFKEMERKVDVTSRAVMEIMTKTIEYLQPNPASRAKLSMINTMSKIRGQEKGPGYPQAEALLAEAMLKFGRELGDDCNFGPALGEVGEAMRELSEVKDSLDMEVKQNFIDPLQNLHDKDLREIQHHLKKLEGRRLDFDYKKKRQGKIPDEELRQALEKFDESKEIAESSMFNLLEMDIEQVSQLSALVQAQLEYHKQAVQILQQVTVRLEERIRQASSQPRREYQPKPRMSLEFATGDGTQPNGGLSHTGTPKPAGVQMDQPCCRALYDFEPENEGELGFKEGDIITLTNQIDENWYEGMLHGQSGFFPINYVEILVALPH
notes: Endophilin-A1, rat, endogenous full-length protein of nerve terminals; The Western blots are probed with antibodies to Endophilin A; also called 40 kDa protein; source: endogenous, rat brain synaptosomal lysate

Assays:
[1] = molecular target: T1, Dyn1xA-PRR 746-864 (GST tag removed); experiment: SEC-MALS; Superdex 75 10/300 GL, 20 mM HEPES, 100 mM NaCl, 1 mM DTT, 1 mM PMSF, pH 7.2; complex at 0.5 mg and diluted to one third (0.167 mg); conditions: both partners purified
[2] = molecular target: T2, GST-Dyn1xA-PRR (dynamin 1xA …); experiment: ELISA; His-tagged mouse Endophilin A1 SH3 domain coated onto a 96-well plate, overlaid with increasing concentrations of GST-tagged Dyn1-PRR peptides; two experiments with four replicates each; conditions: both partners purified
GST-dyn1xA-PRR R838A = molecular target: T3, GST-dyn1xA-PRR R838A; experiment: pull-down; GST fusion proteins on GSH-sepharose beads incubated with pre-cleared rat brain synaptosomal lysate (20 mM Tris pH 7.4, 150 mM NaCl, 1% Triton X-100, 1 mM EDTA, 1 mM EGTA) at 4 °C for 1 h; bound proteins by Coomassie stain or Western blot (some blots quantified by densitometry); conditions: one partner purified
[3] = molecular target: B2; experiment: ELISA; His-tagged mouse Endophilin A1 SH3 domain coated onto a 96-well plate, overlaid with increasing concentrations of GST-tagged Dyn1-PRR peptides; two experiments with four replicates each; conditions: both partners purified

**Q.** B1 was tested. Which “stoichiometry N” value [1] did it give?
**A.** 1

**Q.** B2 was tested. Which Kd [2] did it give?
**A.** 0.044 µM

**Q.** With B3 as the binder, how does the “binding relative to wild-type Dyn1xA-PRR (median)” value (GST-dyn1xA-PRR R838A) read?
**A.** 14.2%

**Q.** Which “fold difference in affinity from xA 746-864” value [3] does the source give for B4 here?
**A.** < 2 fold

**Q.** And the “fold higher affinity than xA 751-798” value [3]?
**A.** 5 fold

**Q.** B5 was tested. Which “binding relative to wild-type Dyn1xA-PRR (median)” value (GST-dyn1xA-PRR R838A) did it give?
**A.** 68.2%
